Measurements from paper PMC8240473 (DNA repair, 2020).
Several values for one entry are separate records, joined by “and”; a condition that tells them apart may be missing. Equal values may be shown once. Read-outs that look alike come from different tables or passages of the source. Each block holds one molecule with its values, some of them ahead of it. No end group written: not given here. *: point of attachment. Biotin = O=C1N[C@H]2[C@H](CS[C@H]2CCCCC(=O)*)N1; Ahx = NCCCCCC(=O)O

B1: Rad6-Rad18 complex, purified (complex, yeast)
chain 1: MDHQITTASDFTTTSIPSLYQLDTLLRCHICKDFLKVPVLTPCGHTFCSLCIRTHLNNQPNCPLCLFEFRESLLRSEFLVSEIIQSYTSLRSSLLDALRIPKPTPVPENEEVPGPENSSWIELISESESDSVNAADDDLQIVATSERKLAKRSMTDILPLSSKPSKRNFAMFRSERIKKKSKPNEQMAQCPICQQFYPLKALEKTHLDECLTLQSLGKKPKISTTFPTESNPHNKSSSRFKVRTPEVDKSSCGETSHVDKYLNSMMSAEHQRLPKINFTSMTQSQIKQKLSSLGLSTNGTRQNMIKRYNHYEMLWNSNFCDSLEPVDEAELKRQLLSWDVSHNKTPQNSSNKGGISKLMIMKSNGKSSSYRKLLENFKNDKFNRKGWMVMFRKDFARLIREAKMKIKTGSSDSSGSVGHSNDGDGVEKVQSDQGTEDQQMEKDQDTVINEDRVAGERNLPNEDSTDADLSRELMDLNEYSKDPPGNN
chain 2: MSTPARRRLMRDFKRMKEDAPPGVSASPLPDNVMVWNAMIIGPADTPYEDGTFRLLLEFDEEYPNKPPHVKFLSEMFHPNVYANGEICLDILQNRWTPTYDVASILTSIQSLFNDPNPASPANVEAATLFKDHKSQYVKRVKETVEKSWEDDMDDMDDDDDDDDDDDDDEAD
B2: Rad6, purified (enzyme, yeast, UniProt P06104 1-172, looked up)
chain: B1 chain 2
B3: PCNA, purified (natural protein, yeast, UniProt P15873 1-258, looked up)
chain: MLEAKFEEASLFKRIIDGFKDCVQLVNFQCKEDGIIAQAVDDSRVLLVSLEIGVEAFQEYRCDHPVTLGMDLTSLSKILRCGNNTDTLTLIADNTPDSIILLFEDTKKDRIAEYSLKLMDIDADFLKIEELQYDSTLSLPSSEFSKIVRDLSQLSDSINIMITKETIKFVADGDIGSGSVIIKPFVDMEHPETSIKLEMDQPVDLTFGAKYLLDIIKGSSLSDRVGIRLSSEAPALFQFDLKSGFLQFFLAPKFNDEE
B4: N-terminally biotinylated peptide containing PIP1 of pol η (peptide)
chain: {Biotin-Ahx}-QKKQVTSSKNILSFFTRKK

Key:
Assay in all cases: BLI
[1] = target: N-terminally biotinylated peptide containing the R6BD of Rad18 (yeast)
[2] = target: N-terminally biotinylated peptide containing the R6BD of Rad18 (yeast); remark: listed apart in the source
PCNA, purified = target: B3
[3] = target: B1
Rad6, purified = target: B2
[4] = target: B4

Kd [1]: 2.8 µM
Kd [2]: 2.5 µM
Molecule: Rad6, purified (from UniProt P06104 1-172) (enzyme)

Kd (PCNA, purified): 12 µM and 13 µM
koff (PCNA, purified): 0.3 s⁻¹
Kd [3]: 3.7 ± 0.5 µM
koff [3]: 0.13 s⁻¹
koff (Rad6, purified): 0.6 s⁻¹
Molecule: {Biotin-Ahx}-ESSKNLSFGEKRLLFSRKRP [N-terminally biotinylated peptide containing PIP2 of pol η]

Molecule: B1
dwell time [4]: 1300 s

Molecule: B2
dwell time [4]: 50 s

Molecule: B3
dwell time [4]: 190 s

Molecule: B4
Kd (PCNA, purified): 0.0072 ± 0.0024 µM
koff (PCNA, purified): 0.0054 s⁻¹
Kd [3]: 1.2 ± 0.1 µM
koff [3]: 0.0008 s⁻¹
Kd (Rad6, purified): 2.3 ± 0.4 µM
koff (Rad6, purified): 0.02 s⁻¹

Kd (Rad6, purified): 0.6 µM
Molecule: NKRLKKQGTLESFFKRKAK (not fully specified) [PIP-like motif of Pol32 (peptide)]
